Measurements published in US12134610B2, “Somatostatin subtype-2 receptor (SST2R) targeted therapeutics and uses thereof” (priority 2022, dated 2024).
Where two headings read alike, the source gives them in different places.

Assays:
[1] = H524 tumor biodistribution model: tumor and plasma levels of SMDC and MMAE by LC/MS-MS; format: in vivo, female Athymic nude mice; settings: H524 tumor bearing nude mice; for level at time molar at 4 h: 4 h after 500 nmol/kg IV; for level at time molar at 1 h: 1 h after 500 nmol/kg IV
Experimental: In this example, 5 million H524 (Small Cell Lung Cancer) cells in 1:1 Matrigel: cold Media (RPMI1640) were injected into the subcutaneous (SQ) flank of female Athymic nude mice. Tumor volumes and body weights were measured twice a week. The tumors were allowed to grow until they reached 250-500 mm^3 in size before animals were randomized into groups (n=3/time point). Animals were injected intravenously with a SMDC of the present invention at a single dose of 500 nmol/kg. […] BLQ: Below Limit of Quantitation.

[2] = tested on: NCI-H524 (ATCC) human small cell lung cancer cells; format: cell-based; settings: 2 h
How it was run: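 CellTiter-Glo luminescence after a 2 h SMDC pulse (top dose 1 uM, 2-fold dilutions, 11 points), medium wash, then 70 h recovery. Cells were seeded at 5,000/well and dosed 24 h later. % inhibition vs control gave IC50 via four-parameter fit.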

[3] = target: T1, SST2 (Homo sapiens, UniProt P30874); experiment: PathHunter CHO-K1 SST2 internalization assay; format: cell-based; settings: PathHunter CHO-K1 SST2, 90 min; read-out: Internalization EC50
T1 construct: host or cells: PathHunter CHO-K1 SST2 cells
How it was run: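 IC50 comes from four-parameter curves on background-corrected duplicates of Beta-Glo luminescence, read after 60 min at room temperature in the dark. Before that, CHO-K1 SST2 internalization cells (48 h post-seeding) received SMDC as eleven threefold dilutions, 10 uM highest final, for 90 min at 37 C.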

[4] = target: T2, human somatostatin receptor subtype 2 (Homo sapiens, UniProt P30874); experiment: Functional cAMP assay for SSTR2 agonists (HTRF) in CHO-K1 cells; format: cell-based; settings: CHO-K1 cells stably expressing human SST2, 20 min; read-out: hSST2 cAMP Avg EC50
T2 construct: expressed in transfected cells
How it was run: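 Agonism scored as loss of NKH477 (1.6 μM)-driven cAMP, with IBMX present, after 20 min, 37° C. exposure of stably transfected CHO-K1 cells to compound dilutions (typically 0-10,000 nM). Lysates read by time-resolved FRET; cAMP interpolated from standard curve and EC50 derived.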

[5] = MMAE level 4 h after 500 nmol/kg IV of the conjugate
[6] = MMAE level 24 h after 500 nmol/kg IV of the conjugate
[7] = MMAE level 72 h after 500 nmol/kg IV of the conjugate
[8] = MMAE level 168 h after 500 nmol/kg IV of the conjugate
[9] = MMAE level 240 h after 500 nmol/kg IV of the conjugate
[10] = female, Athymic nude, mouse, plasma, read-out: Conjugate Plasma
[11] = female, Athymic nude, mouse, plasma, 24 h after 500 nmol/kg IV, read-out: Conjugate Plasma
[12] = female, Athymic nude, mouse, read-out: Conjugate Tumor
[13] = MMAE level 1 h after 500 nmol/kg IV of the conjugate

T1 sequence (P30874 whole entry): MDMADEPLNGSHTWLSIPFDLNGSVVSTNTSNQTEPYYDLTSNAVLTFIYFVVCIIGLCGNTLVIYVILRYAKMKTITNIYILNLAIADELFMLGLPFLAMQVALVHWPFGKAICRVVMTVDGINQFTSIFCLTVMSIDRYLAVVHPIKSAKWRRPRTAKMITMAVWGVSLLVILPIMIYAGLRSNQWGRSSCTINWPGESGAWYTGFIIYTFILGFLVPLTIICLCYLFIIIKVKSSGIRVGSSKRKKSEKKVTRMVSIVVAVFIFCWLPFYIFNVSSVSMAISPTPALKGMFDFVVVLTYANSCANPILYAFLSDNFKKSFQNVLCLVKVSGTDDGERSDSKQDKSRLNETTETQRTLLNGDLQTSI
T2 sequence (P30874 whole entry): as above

| Compound | Conjugate Plasma (nM) ([1]; 72 h after 500 nmol/kg IV) | MMAE Plasma [1, 5] [nM] | MMAE Tumor [1, 5] [nM] | MMAE Plasma (nM) [1, 6] | MMAE Tumor [1, 6] [nM] | MMAE Plasma (nM) [1, 7] | MMAE Tumor [1, 7] [nM] | level at time molar at 4 h [1, 10] [µM] | level at time molar at 24 h [1, 11] [µM] | level at time molar at 4 h [1, 12] [µM] | EC50 [2] [nM] | EC50 [3] [nM] | EC50 [4] [nM] | also measured |
| --- | --- | --- | --- | --- | --- | --- | --- | --- | --- | --- | --- | --- | --- | --- |
| CC[C@H](C)[C@@H]([C@@H](CC(=O)N1CCC[C@H]1[C@H](OC)[C@@H](C)C(=O)N[C@H](C)[C@@H](O)c1ccccc1)OC)N(C)C(=O)[C@@H](NC(=O)[C@H](C(C)C)N(C)C(=O)OCc1ccc(NC(=O)[C@H](CCCNC(N)=O)NC(=O)[C@@H](NC(=O)[C@@H](CS(=O)(=O)O)NC(=O)CCOCCC(=O)NCCNc2ncc(-c3cc(C)cc(F)c3)c(N3CCC(N)CC3)c2-c2nc3ccc(Cl)cc3[nH]2)C(C)C)cc1C(=O)NCCN)C(C)C [Compound 107] | BLQ | 2.26 | 123 | BLQ | 242 | BLQ | 141 | 0.0831 | 0.000441 | 0.0942 | 4 | 2.2 | 0.15 | Conjugate Plasma (nM) ([1]; 168 h after 500 nmol/kg IV): BLQ; Conjugate Tumor (nM) ([1]; 168 h after 500 nmol/kg IV): BLQ; Conjugate Plasma (nM) ([1]; 240 h after 500 nmol/kg IV): BLQ; Conjugate Tumor (nM) ([1]; 240 h after 500 nmol/kg IV): BLQ; MMAE Plasma (nM) [1, 8]: BLQ; MMAE Tumor [1, 8]: 90.1 nM; MMAE Plasma (nM) [1, 9]: BLQ; MMAE Tumor [1, 9]: 25.2 nM; level at time molar at 24 h ([1]; female, Athymic nude, mouse, 24 h after 500 nmol/kg IV, read-out: Conjugate Tumor): 0.00926 µM; level at time molar at 72 h ([1]; female, Athymic nude, mouse, 72 h after 500 nmol/kg IV, read-out: Conjugate Tumor): 0.00164 µM |
| CC[C@H](C)[C@@H]([C@@H](CC(=O)N1CCC[C@H]1[C@H](OC)[C@@H](C)C(=O)N[C@H](C)[C@@H](O)c1ccccc1)OC)N(C)C(=O)[C@@H](NC(=O)[C@H](C(C)C)N(C)C(=O)OCc1ccc(NC(=O)[C@H](CCCNC(N)=O)NC(=O)[C@@H](NC(=O)[C@H](CCC(=O)O)NC(=O)CCOCCC(=O)NCCNc2ncc(-c3cc(C)cc(F)c3)c(N3CCC(N)CC3)c2-c2nc3ccc(Cl)cc3[nH]2)C(C)C)cc1C(=O)NCCN)C(C)C [Compound 49] | BLQ | 1.36 | 65.7 | BLQ | 83.5 | BLQ | 62.7 | 0.0416 | 0.000783 | 0.0465 | 17.3 | 5.5 | 0.14 | Conjugate Tumor (nM) ([1]; 24 h after 500 nmol/kg IV): BLQ; Conjugate Tumor (nM) ([1]; 72 h after 500 nmol/kg IV): BLQ; MMAE Plasma [1, 13]: 9.2 nM; MMAE Tumor [1, 13]: 38 nM; level at time molar at 1 h [1, 10]: 0.354 µM; level at time molar at 1 h [1, 12]: 0.0881 µM |
